In paper PMC10397247:

Experiments:
[1] = target: T1, O14-AA; test: two-hybrid library CCmax; conditions: mean of both orientations;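 also: natural log of median RNA to DNA barcode read ratio; higher means stronger binding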
T1 chain: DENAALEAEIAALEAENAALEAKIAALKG

[2] = target: T2, 4H3590-AA; test: two-hybrid library CCmax; conditions: mean of both orientations;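 also: natural log of median RNA to DNA barcode read ratio; higher means stronger binding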
T2 chain: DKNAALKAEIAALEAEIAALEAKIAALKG

[3] = target: T3, 4H2736-AA; test: two-hybrid library CCmax; conditions: mean of both orientations;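 also: natural log of median RNA to DNA barcode read ratio; higher means stronger binding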
T3 chain: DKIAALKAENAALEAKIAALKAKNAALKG

[4] = target: T4, 4H2622-AA; test: two-hybrid library CCmax; conditions: mean of both orientations;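 also: natural log of median RNA to DNA barcode read ratio; higher means stronger binding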
T4 chain: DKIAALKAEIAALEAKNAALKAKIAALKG

[5] = target: T5, 4H43-AA; test: two-hybrid library CCmax; conditions: mean of both orientations;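 also: natural log of median RNA to DNA barcode read ratio; higher means stronger binding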
T5 chain: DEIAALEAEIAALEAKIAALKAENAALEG

[6] = target: T6, 4H2888-AA; test: two-hybrid library CCmax; conditions: mean of both orientations;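 also: natural log of median RNA to DNA barcode read ratio; higher means stronger binding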
T6 chain: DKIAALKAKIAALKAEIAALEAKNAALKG

[7] = target: T7, 4H3625-AA; test: two-hybrid library CCmax; conditions: mean of both orientations
T7 chain: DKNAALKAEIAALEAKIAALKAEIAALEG

[8] = target: T8, 4H_APH; test: two-hybrid library CCmax; conditions: mean of both orientations
T8 chain: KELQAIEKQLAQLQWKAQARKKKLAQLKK

[9] = target: T9, 4H510-AA; test: two-hybrid library CCmax; conditions: mean of both orientations
T9 chain: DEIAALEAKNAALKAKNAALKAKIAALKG

[10] = target: T10, 4H451-AA; test: two-hybrid library CCmax; conditions: mean of both orientations
T10 chain: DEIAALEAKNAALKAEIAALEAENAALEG

[11] = target: T11, O13-AA; test: two-hybrid library CCmax; conditions: mean of both orientations
T11 chain: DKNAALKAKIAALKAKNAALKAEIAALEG

[12] = target: T12, 4H134-AA; test: two-hybrid library CCmax
T12 chain: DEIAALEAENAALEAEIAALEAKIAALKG

[13] = target: T13, 4H_BCR; test: two-hybrid library CCmax
T13 chain: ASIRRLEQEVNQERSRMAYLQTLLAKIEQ

[14] = target: T14, 4H4038-AA; test: two-hybrid library CCmax; conditions: mean of both orientations
T14 chain: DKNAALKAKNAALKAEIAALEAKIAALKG

[15] = target: T15, 4H2705-AA; test: two-hybrid library CCmax; conditions: mean of both orientations
T15 chain: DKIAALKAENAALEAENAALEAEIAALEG

[16] = target: T16, 4H337-AA; test: two-hybrid library CCmax; conditions: mean of both orientations
T16 chain: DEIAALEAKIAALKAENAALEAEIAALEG

[17] = target: T17, 4H3905-AA; test: two-hybrid library CCmax; conditions: mean of both orientations
T17 chain: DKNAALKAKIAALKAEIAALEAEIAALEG

[18] = target: 4H_GCN4; test: two-hybrid library CCmax
[19] = target: GCN2_T; test: two-hybrid library CCmax; conditions: mean of both orientations
[20] = target: T18, 4H1392-AA; test: two-hybrid library CCmax; conditions: mean of both orientations
T18 chain: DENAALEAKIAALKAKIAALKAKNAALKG

[21] = target: T19, O11-AA; test: two-hybrid library CCmax; conditions: mean of both orientations
T19 chain: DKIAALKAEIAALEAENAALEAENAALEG

[22] = target: T20, 4H1350-AA; test: two-hybrid library CCmax; conditions: mean of both orientations
T20 chain: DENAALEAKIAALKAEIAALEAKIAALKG

[23] = target: T21, 4H1385-AA; test: two-hybrid library CCmax; conditions: mean of both orientations
T21 chain: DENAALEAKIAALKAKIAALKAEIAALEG

[24] = target: T22, 4H384-AA; test: two-hybrid library CCmax; conditions: mean of both orientations
T22 chain: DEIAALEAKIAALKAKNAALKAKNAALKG

[25] = target: T23, 4H3587-AA; test: two-hybrid library CCmax; conditions: mean of both orientations
T23 chain: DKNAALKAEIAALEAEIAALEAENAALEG

[26] = target: T24, 4H3049-AA; test: two-hybrid library CCmax; conditions: mean of both orientations
T24 chain: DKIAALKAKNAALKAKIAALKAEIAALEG

[27] = target: T25, P11A-bA; test: two-hybrid library CCNG1
T25 chain: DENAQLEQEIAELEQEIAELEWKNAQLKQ

[28] = target: T26, 4H491-bH; test: two-hybrid library CCNG1
T26 chain: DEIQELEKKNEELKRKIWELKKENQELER

[29] = target: T27, O14; test: two-hybrid library CC0; conditions: mean of both orientations
T27 chain: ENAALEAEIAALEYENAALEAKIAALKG

[30] = target: T28, O4; test: two-hybrid library CC0; conditions: mean of both orientations
T28 chain: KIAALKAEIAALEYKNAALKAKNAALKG

[31] = target: T29, O7; test: two-hybrid library CC0; conditions: mean of both orientations
T29 chain: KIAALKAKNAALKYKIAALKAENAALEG

[32] = target: T30, O16; test: two-hybrid library CC0; conditions: mean of both orientations
T30 chain: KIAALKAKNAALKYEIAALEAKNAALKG

[33] = target: T31, O9; test: two-hybrid library CC0; conditions: mean of both orientations
T31 chain: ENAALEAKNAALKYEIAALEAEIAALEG

[34] = target: T32, O15; test: two-hybrid library CC0; conditions: mean of both orientations
T32 chain: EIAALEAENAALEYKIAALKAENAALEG

[35] = target: T33, O13; test: two-hybrid library CC0; conditions: mean of both orientations
T33 chain: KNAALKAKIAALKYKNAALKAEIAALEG

[36] = target: T34, O8; test: two-hybrid library CC0; conditions: mean of both orientations
T34 chain: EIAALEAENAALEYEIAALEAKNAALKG

[37] = target: T35, O3; test: two-hybrid library CC0; conditions: mean of both orientations
T35 chain: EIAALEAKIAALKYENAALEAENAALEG

[38] = target: T36, O12; test: two-hybrid library CC0; conditions: mean of both orientations
T36 chain: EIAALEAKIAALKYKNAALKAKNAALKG

[39] = target: T37, O2; test: two-hybrid library CC0; conditions: mean of both orientations
T37 chain: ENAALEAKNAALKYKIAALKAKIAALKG

[40] = target: T38, O11; test: two-hybrid library CC0; conditions: mean of both orientations
T38 chain: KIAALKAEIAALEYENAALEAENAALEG

[41] = target: T39, O6; test: two-hybrid library CC0; conditions: mean of both orientations
T39 chain: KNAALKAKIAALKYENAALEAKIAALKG

[42] = target: T40, O5; test: two-hybrid library CC0; conditions: mean of both orientations
T40 chain: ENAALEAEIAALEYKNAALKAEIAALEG

[43] = target: T41, 4H1405-AA; test: two-hybrid library CCmax; conditions: mean of both orientations
T41 chain: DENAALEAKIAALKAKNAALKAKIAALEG

[44] = target: T42, 4H2935-AA; test: two-hybrid library CCmax; conditions: mean of both orientations
T42 chain: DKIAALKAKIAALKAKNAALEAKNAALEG

[45] = target: T43, 4H2513-AA; test: two-hybrid library CCmax; conditions: mean of both orientations
T43 chain: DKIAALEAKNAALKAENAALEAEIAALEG

[46] = target: T44, 4H55-AA; test: two-hybrid library CCmax; conditions: mean of both orientations
T44 chain: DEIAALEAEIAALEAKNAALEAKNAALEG

[47] = target: T45, 4H2614-AA; test: two-hybrid library CCmax; conditions: mean of both orientations
T45 chain: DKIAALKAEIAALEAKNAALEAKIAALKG

[48] = target: T46, 4H1198-AA; test: two-hybrid library CCmax; conditions: mean of both orientations
T46 chain: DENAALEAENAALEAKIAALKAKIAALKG

[49] = target: T47, 4H3664-AA; test: two-hybrid library CCmax; conditions: mean of both orientations
T47 chain: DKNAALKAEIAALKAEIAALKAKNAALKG

[50] = target: T48, 4H4033-AA; test: two-hybrid library CCmax; conditions: mean of both orientations
T48 chain: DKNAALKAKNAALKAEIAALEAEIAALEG

[51] = target: T49, 4H2726-AA; test: two-hybrid library CCmax; conditions: mean of both orientations
T49 chain: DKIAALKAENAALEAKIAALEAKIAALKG

[52] = target: T50, 4H2238-AA; test: two-hybrid library CCmax; conditions: mean of both orientations
T50 chain: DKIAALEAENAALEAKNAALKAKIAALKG

[53] = target: T51, 4H327-AA; test: two-hybrid library CCmax
T51 chain: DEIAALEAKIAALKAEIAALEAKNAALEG

[54] = target: T52, 4H369-AA; test: two-hybrid library CCmax; conditions: mean of both orientations
T52 chain: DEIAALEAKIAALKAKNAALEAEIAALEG

[55] = target: T53, 4H662-AA; test: two-hybrid library CCmax; conditions: mean of both orientations
T53 chain: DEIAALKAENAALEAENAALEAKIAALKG

[56] = target: T54, 4H481-AA; test: two-hybrid library CCmax; conditions: mean of both orientations
T54 chain: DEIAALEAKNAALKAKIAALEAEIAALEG

[57] = target: T55, 4H1103-AA; test: two-hybrid library CCmax
T55 chain: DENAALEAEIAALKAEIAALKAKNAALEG

[58] = target: T56, 4H2211-AA; test: two-hybrid library CCmax
T56 chain: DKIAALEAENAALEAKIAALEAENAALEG

[59] = target: T57, 4H3605-AA; test: two-hybrid library CCmax; conditions: mean of both orientations
T57 chain: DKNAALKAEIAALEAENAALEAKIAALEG

[60] = target: T58, 4H3922-AA; test: two-hybrid library CCmax; conditions: mean of both orientations
T58 chain: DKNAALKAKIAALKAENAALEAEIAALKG

[61] = target: T59, 4H2536-AA; test: two-hybrid library CCmax; conditions: mean of both orientations
T59 chain: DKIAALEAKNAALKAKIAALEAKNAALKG

[62] = target: T60, 4H2608-AA; test: two-hybrid library CCmax; conditions: mean of both orientations
T60 chain: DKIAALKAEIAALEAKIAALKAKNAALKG

4H_GCN4, sequence (chain, as listed by the source): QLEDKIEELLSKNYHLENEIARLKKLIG

B1: 4H134-AA (peptide)
chain: DEIAALEAENAALEAEIAALEAKIAALKG
- interaction score [1]: -0.533
- interaction score [2]: 0.654
- interaction score [3]: 0.536
- interaction score [4]: 2.38
- interaction score [5]: -0.679
- interaction score [6]: 2.4
- interaction score [7]: 1.5
- interaction score [8]: 1.96
- interaction score [9]: 1.96
- interaction score [10]: 0.937
- interaction score [11]: 2.02
- interaction score [12]: -0.374
- interaction score [13]: -0.839
- interaction score [14]: 2
- interaction score [15]: -0.938
- interaction score [16]: 0.273
- interaction score [17]: 1.17
- interaction score [18]: 1.94
- interaction score [19]: 0.268
- interaction score [20]: 0.139
- interaction score [21]: -1.36
- interaction score [22]: 0.48
- interaction score [23]: 2.21
- interaction score [24]: 2.04
- interaction score [25]: 0.794
- interaction score [26]: 1.84

B2: 4H491-bH (peptide)
chain: DEIQELEKKNEELKRKIWELKKENQELER
- interaction score [27]: 0.405
- interaction score [28]: -1.32

B3: O11 (peptide)
chain: KIAALKAEIAALEYENAALEAENAALEG
- interaction score [29]: -2.7
- interaction score [30]: 0.197
- interaction score [31]: -2.69
- interaction score [32]: -2.66
- interaction score [33]: -2.79
- interaction score [34]: -2.79
- interaction score [35]: -2.75
- interaction score [36]: -2.61
- interaction score [37]: -2.55
- interaction score [38]: 0.932
- interaction score [39]: -2.53
- interaction score [40]: -2.72
- interaction score [41]: -2.64
- interaction score [42]: -2.71

B4: 4H1103-AA (peptide)
chain: DENAALEAEIAALKAEIAALKAKNAALEG
- interaction score [43]: -1.89
- interaction score [44]: -1.16
- interaction score [45]: -1.55
- interaction score [46]: -1.09
- interaction score [47]: -1.01
- interaction score [7]: -0.923
- interaction score [48]: -1.33
- interaction score [49]: 2.17
- interaction score [50]: 0.386
- interaction score [51]: -1.04
- interaction score [52]: -1.65
- interaction score [53]: -0.714
- interaction score [54]: -1.5
- interaction score [55]: -1.27
- interaction score [56]: -0.163
- interaction score [57]: 1.1
- interaction score [22]: -0.275
- interaction score [58]: -1.7
- interaction score [59]: -1.61
- interaction score [60]: -1.44
- interaction score [61]: -1.47
- interaction score [62]: 0.0702
